Results taken from PMC8075905, “Mapping the binding sites of antibodies utilized in programmed cell death ligand-1 predictive immunohistochemical assays for use with immuno-oncology therapies” (Modern Pathology, 2019).

Experiments:
[1] = biological target: T1, Ext4 PD-L1-GFP, a PD-L1 mutant with residues 284-290 deleted (Homo sapiens, UniProt Q9NZQ7, residues 284–290 deleted); experiment: immunostaining of cells or tissue; confocal immunofluorescence microscopy of HEK293 cells expressing PD-L1-GFP constructs, stained with r22C3 and r28-8; protocol in Supplementary Appendix B; settings: one partner purified
T1 construct: The label 'Ext4' is probably a slip for 'Int4'; source: HEK293 cells, expressed, on cells
T1 sequence (Q9NZQ7 19-283, stated change not applied): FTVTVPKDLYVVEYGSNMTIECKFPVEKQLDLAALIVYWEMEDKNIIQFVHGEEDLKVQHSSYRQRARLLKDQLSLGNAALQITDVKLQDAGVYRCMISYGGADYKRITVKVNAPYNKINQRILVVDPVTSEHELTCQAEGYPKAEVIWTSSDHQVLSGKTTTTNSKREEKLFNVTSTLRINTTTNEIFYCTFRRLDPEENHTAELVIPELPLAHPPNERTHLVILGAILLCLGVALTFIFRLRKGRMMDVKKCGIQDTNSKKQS

[2] = biological target: T2, His-tagged extracellular domain of PD-L1 (residues 19-238) (Homo sapiens (Human)., UniProt Q9NZQ7, N-linked glycosylation (sites N35, N192, N200, N219)); experiment: SPR; Biacore T200, 25 °C, PBS (10 mM sodium phosphate, 154 mM NaCl, pH 7.4) with 0.05% Tween-20; 90 RU r22C3 captured on anti-mouse antibody on a C1 chip; PD-L1 extracellular domain injected (top 110 nM, two-fold dilutions); 1:1 Langmuir model; settings: both partners purified
T2 construct: programmed cell death ligand-1 (PD-L1), human, extracellular domain, residues 19-238 of the 290-residue protein; The limits are stated for the SPR experiment; also called PD-L1 extracellular domain; recombinant PD-L1; source: provided by MedImmune, Cambridge, UK; purified
T2 sequence (Q9NZQ7 19-238): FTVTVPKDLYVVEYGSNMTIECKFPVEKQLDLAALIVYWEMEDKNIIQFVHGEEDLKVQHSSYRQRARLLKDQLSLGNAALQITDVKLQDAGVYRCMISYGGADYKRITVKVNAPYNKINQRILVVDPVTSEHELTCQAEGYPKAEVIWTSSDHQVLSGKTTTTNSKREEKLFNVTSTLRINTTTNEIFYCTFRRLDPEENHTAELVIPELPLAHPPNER

[3] = biological target: T2, His-tagged extracellular domain of …; experiment: SPR; Biacore T200, 25 °C, PBS pH 7.4 with 0.05% Tween-20; 90 RU r22C3 captured, PD-L1 extracellular domain injected at 110 nM, then r28-8 injected over the r22C3-PD-L1 complex (top 33 nM, two-fold dilutions); 1:1 Langmuir model; settings: both partners purified

binding result [1] | Kd [2] | Kd [3] | Binder
binds | < 40 pM |  | recombinant 22C3 antibody (r22C3), mouse IgG (antibody, V domains shown, Mouse IgG; source: CHO-EBNA-GS cells, transient expression, purified) VH: QVHLQQSGAELAKPGASVKMSCKASGYTFTSYWIHWIKQRPGQGLEWIGYINPSSGYHEYNQKFIDKATLTADRSSSTAYMHLTSLTSEDSAVYYCARSGWLIHGDYYFDFWGQGTTLVTVS VL: DIVMSQSPSSLAVSAGEKVTMTCKSSQSLLHTSTRKNYLAWYQQKPGQSPKLLIYWASTRESGVPDRFTGSGSGTDFTLTISSVQAEDLAVYYCKQSYDVVTFGAGTKLEIK
binds |  | < 40 pM | recombinant 28-8 antibody (r28-8), rabbit IgG (antibody, V domains shown, Rabbit IgG; source: CHO-EBNA-GS cells, transient expression, purified) VH: CLSVEESGGRLVTPGTPLTLTCTASGFTITNYHMFWVRQAPGKGLEWIGVITSSGIGSSSTTYYATWAKGRFTISKTSTTVNLRITSPTTEDTATYFCARDYFTNTYYALDIWGPGTLVTVSS VL: ALVMTQTPSSTSTAVGGTVTIKCQASQSISVYLAWYQQKPGQPPKLLIYSASTLASGVPSRFKGSRSGTEYTLTISGVQREDAATYYCLGSAGSFGGGTEVVVK
